Molecular target: His-tagged SARS-CoV-2 RBD (early pandemic, Wuhan) (SARS-CoV-2, UniProt P0DTC2)
Experiment: SPR

Binder | koff [s⁻¹]
EY6A mAb (IgG) (antibody, V domains shown) VH: EVQLVESGGGVVQPGRSLRLSCAASAFTFSSYDMHWVRQAPGKGLEWVAVISYDGSNKYYADSVKGRFTISRDNSKNTLYLQMNSLRAEDTAVYYCAKDGGKLWVYYFDYWGQGTLVTVSS VL: not shown | 0.0048
Beta-55 mAb (IgG) (antibody, V domains shown) VH: QVQLQESGPGLVKPSETLSLTCTVSGDSISSSRYYWGWIRQPPGKGLEWIGTFYYSGITYYNPSLKSRVTIFVDTSKNQFSLKLSSVTAADTAVYYCARPRPPDYYDNSGALLFDIWGQGTMVTVSS VL: AIRMTQSPSTLSASVGDRVTIACRASQSISAWLAWYQQKPGKAPKLLIYKASSLESGVPSRFSGSGSGTEFTLTINSLQPDDFATYYCQQYISSSPWTFGQGTKVEIK | 0.00018

Reference: paper PMC8723827 (2022)
